Measured values: patent publication US20210009663A1 (published 2021)

B1: mAb 8 (antibody, V domains shown)
VH: EVQLLESGGGLVQPGGSLRLSCAASGFSFSTYSMHWVRQAPGKGLEWVSAISGEGDSAYYADSVKGRFTISRDNSKNTLYLQMNKVRAEDTAVYYCVGGYSNFYYYYTMDAWGQGTMVTVSS
VL: DIVMTQSPASLSLSPGERATLSCRATQSISTFLAWYQQKPGQAPRLLIYDASTRASGIPARFSGSRSGTDFTLTITRLEPEDFAVYYCQQRYNWPPYSFGQGTKLEIK
B2: fusion loop targeting pan-flavivirus antibody 4G2 (antibody, V domains shown)
VH: EVQLQQSGPELVKPGTSVKISCKTSGYTFTEYTIHWVKQSHGKSLAWIGGIDPNSGGTNYSPNFKGKATLTVDKSSSTAYMDLRSLSSEDSAVYFCARIYHYDGYFDVWGAGTAVTVSS
VL: DIKMTQSPSSMYASLGERVTITCKASQDINSYLTWFQQKPGKSPKTLIYRANRLIDGVPSRFSGSGSGQDYSLTISSLDYEDMGIYYCLQYDEFPPTFGGGTKLEIKR

Legend:
[1] = biological target: T1, Zika virus envelope protein, strain H/PF/2013 (French Polynesia 2013) (Zika virus); experiment: cell-based or functional assay
[2] = biological target: T1, Zika virus envelope protein, strain …

T1 sequence (A0A024B7W1 291-794): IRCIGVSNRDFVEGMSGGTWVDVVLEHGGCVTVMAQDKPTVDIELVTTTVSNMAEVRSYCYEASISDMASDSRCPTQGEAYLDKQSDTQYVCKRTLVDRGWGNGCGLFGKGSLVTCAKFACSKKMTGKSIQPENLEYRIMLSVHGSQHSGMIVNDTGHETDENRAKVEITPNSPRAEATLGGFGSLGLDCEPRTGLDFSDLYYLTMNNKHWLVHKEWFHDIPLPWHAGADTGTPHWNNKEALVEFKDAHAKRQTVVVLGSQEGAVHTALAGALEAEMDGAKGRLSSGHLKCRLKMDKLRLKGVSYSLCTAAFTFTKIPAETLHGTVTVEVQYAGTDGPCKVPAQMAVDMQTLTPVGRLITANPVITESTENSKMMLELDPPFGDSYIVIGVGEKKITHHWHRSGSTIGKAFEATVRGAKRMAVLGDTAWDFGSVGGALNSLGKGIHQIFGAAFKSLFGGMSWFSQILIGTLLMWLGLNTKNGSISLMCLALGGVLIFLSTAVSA

Binder	ADE in THP1.2S cells, viral titers at peak enhancement [1] [fold]	PRNT50 [1] [µg/mL]	Kd [2] [µg/mL]
B1	≥ 3	5.09	
B2			10.3
